The data set concerns the target HIV-1 reverse transcriptase WT (Human immunodeficiency virus type 1) (UniProt P04585+P04585). The experiment in a line: EMSA. The note with it: EFdA-MP at primer 3' end; Footprinting: 120 mM sodium cacodylate pH 7, 20 mM NaCl, 6 mM MgCl2, 1 uM EFdA-TP, 7 min pre-incubation with dTTP, then 1 mM ammonium iron sulfate 5 min …. A general note: Mobility shift assays separate free from complexed probe on a gel.

T/P-EFdA-MP (gel shift): the binding signal (fold stronger than K65R) was 1.3.
